{"source": "patent US20120207676", "about": "(published 2012)", "key": {"[1]": {"biological_target": "T1, Neurotensin receptor NTS1 (HT29 cells/membranes) (human, UniProt P30989)", "T1 sequence (P30989 whole entry)": "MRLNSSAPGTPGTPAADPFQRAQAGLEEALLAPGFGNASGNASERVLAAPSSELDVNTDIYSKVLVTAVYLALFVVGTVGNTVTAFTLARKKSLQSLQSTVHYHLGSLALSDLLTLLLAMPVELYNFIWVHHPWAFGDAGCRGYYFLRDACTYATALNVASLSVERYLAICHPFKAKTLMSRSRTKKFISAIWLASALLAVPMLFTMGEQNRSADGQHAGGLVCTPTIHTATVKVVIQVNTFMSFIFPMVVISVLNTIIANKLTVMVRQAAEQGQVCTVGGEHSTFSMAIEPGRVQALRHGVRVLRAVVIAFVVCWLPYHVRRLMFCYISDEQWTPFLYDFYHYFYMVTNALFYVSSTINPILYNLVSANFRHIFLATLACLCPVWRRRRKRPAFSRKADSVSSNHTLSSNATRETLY", "experiment": "competition, HT29 cells"}, "[2]": {"biological_target": "T1, Neurotensin receptor NTS1 (HT29 …)", "experiment": "competition, HT29 membranes"}}, "data": [{"binder": "KPRRPYIL (not fully specified; N-methylated Pro7-Arg8 bond, Tle12; DOTA(Ga) at Lys6)", "note": "[DOTA(Ga)-NT-20.3]", "values": [{"measurement": "IC50", "setting": "[1]", "result": 13.9, "unit": "nM"}]}, {"binder": "KPRRPYIL (not fully specified; N-methylated Pro7-Arg8 bond, Tle12; DTPA(In) at Lys6)", "note": "[DTPA(In)-NT-20.3]", "values": [{"measurement": "Ki", "setting": "[2]", "result": 2.24, "unit": "nM"}, {"measurement": "IC50", "setting": "[1]", "result": 15.9, "unit": "nM"}]}, {"binder": "KPRRPYIL (not fully specified; N-methylated Pro7-Arg8 bond, Tle12; DOTA(In) at Lys6)", "note": "[DOTA(In)-NT-20.3]", "values": [{"measurement": "IC50", "setting": "[1]", "result": 14.9, "unit": "nM"}]}, {"binder": "KPRRPYIL (NT(6-13) analogue, N-methylated Pro7-Arg8 bond, Tle12)", "note": "[NT-20.3]", "values": [{"measurement": "Ki", "setting": "[2]", "result": 0.16, "unit": "nM"}, {"measurement": "IC50", "setting": "[1]", "result": 2.2, "unit": "nM"}]}, {"binder": "KPRRPYIL (not fully specified; N-methylated Pro7-Arg8 bond, Tle12; DOTA(Y) at Lys6)", "note": "[DOTA(Y)-NT-20.3]", "values": [{"measurement": "IC50", "setting": "[1]", "result": 7, "unit": "nM"}]}]}
